Measured values from US20250084179A1 (Xencor, published 2025).
Residue numbers refer to the chain shown, from its start.

How the values were obtained:
TROP2 [1] = biological target: T1, TROP2 (UniProt P09758 27-274, limits assumed); assay: KD; method and format not stated
T1 construct: also called tumor-associated calcium signal transducer 2; TACSTD2
T1 sequence (looked up): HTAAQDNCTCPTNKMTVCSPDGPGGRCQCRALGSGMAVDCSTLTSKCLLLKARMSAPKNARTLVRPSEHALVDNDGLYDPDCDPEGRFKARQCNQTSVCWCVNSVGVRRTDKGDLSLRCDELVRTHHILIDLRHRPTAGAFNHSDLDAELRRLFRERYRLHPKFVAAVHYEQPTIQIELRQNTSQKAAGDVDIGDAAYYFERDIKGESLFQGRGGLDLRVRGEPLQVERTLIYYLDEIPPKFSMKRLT

TROP2 [2] = biological target: T1, TROP2; assay: monovalent KD; method not stated
TROP2 [3] = biological target: T1, TROP2; assay: not stated; bivalent format
Cyno TROP2 = biological target: T2, Cyno TROP2 (Macaca fascicularis, UniProt A0A2K5UE71); assay: not stated; bivalent format
T2 construct: Construct used in the measurement is not described; also called cynomolgus TROP2
T2 sequence (antigen): T1 sequence (looked up) with M36V, K46E, S67N, I204V

human CD28 [4] = biological target: T3, human CD28 (human, UniProt P10747 19-152, limits assumed); assay: not stated; value printed beside the name in the 'CD28 Mutations' cell, apparently a reference affinity of this domain
T3 construct: also called Cluster of Differentiation 28; Tp44

human CD28 [5] = biological target: T3, human CD28; assay: Octet, monovalent KD; format of this comparator not stated
human CD28 [6] = biological target: T3, human CD28; assay: Octet, monovalent KD of Fab
human CD28 [7] = biological target: T3, human CD28; assay: another set of experiments; monovalent Fab, method not restated (Octet for the FIG. 35 data)

B1: 1A3A4.312 (antibody, V domains shown)
VH: QVQLVQSGAEVKKPGASVKVSCKASGYTFTRHYMHWVRQAPGQGLEWMGIINPGGGATSYAQKFQGRVTMTRDTSTSTVYMELSSLRSEDTAVYYCAREDYAGKWWGMDYWGQGTLVTVSS
VL: not shown
notes: Phage-derived TROP2 clone; also called 1A3A4.312[TROP2]_H1 with L1
B1 gave a Kd (TROP2 [1]) of 80 nM.

B2: 1B2A4.312 (antibody, V domains shown)
VH: QVQLVQSGAEVKKPGASVKVSCKASGYTFTGSYMHWVRQAPGQGLEWMGIINPSGESTVYAQKFQGRVTMTRDTSTSTVYMELSSLRSEDTAVYYCARDPGGSWPFSYALDYWGQGTLVTVSS
VL: not shown
notes: Phage-derived TROP2 clone; also called 1B2A4.312[TROP2]_H1 with L1
For B2, the Kd (TROP2 [1]) was 64 nM.

B3: 1F11-1A3.315_H1L1 (antibody, V domains shown)
VH: QVQLVQSGAEVKKPGASVKVSCKASGYTFTRYYMHWVRQAPGQGLEWMGIINPGGGSTGYAQKFQGRVTMTRDTSTSTVYMELSSLRSEDTAVYYCARDDVVAADVFDYWGQGTLVTVSS
VL: not shown
notes: also called 1F11-1A3.315[Trop2]_H1 with L1; copies: 1 + 1
B3 gave a Kd (TROP2 [2]) of 13 nM, a Kd (TROP2 [3]) of 6.5 nM and a koff (TROP2 [3]) of 0.0012 s⁻¹. It also gave a kon (TROP2 [3]) of 190000 M⁻¹ s⁻¹, a Kd (Cyno TROP2) of 9.9 nM and a koff (Cyno TROP2) of 0.0021 s⁻¹. For the same binder, the kon (Cyno TROP2) was 210000 M⁻¹ s⁻¹.

B4: 1F11-1A3.315[Trop2]_H1.25_L1 (antibody, V domains shown)
VH: B3 VH with G59L
VL: not shown
B4 gave a Kd (TROP2 [3]) of 8.5 nM, a koff (TROP2 [3]) of 0.0014 s⁻¹ and a kon (TROP2 [3]) of 170000 M⁻¹ s⁻¹. For the same binder, the Kd (Cyno TROP2) was 14 nM, the koff (Cyno TROP2) was 0.0027 s⁻¹ and the kon (Cyno TROP2) was 190000 M⁻¹ s⁻¹.

B5: 1F11-1A3.315[Trop2]_H1.26_L1 (antibody, V domains shown)
VH: B3 VH with V102M
VL: not shown
In the case of B5, the Kd (TROP2 [3]) is reported as 4.6 nM, the koff (TROP2 [3]) is reported as 0.00088 s⁻¹ and the kon (TROP2 [3]) is reported as 190000 M⁻¹ s⁻¹. For the same binder, the Kd (Cyno TROP2) was 6.2 nM, the koff (Cyno TROP2) was 0.0015 s⁻¹ and the kon (Cyno TROP2) was 250000 M⁻¹ s⁻¹.

B6: 1F11-1A3.315[Trop2]_H1.29_L1 (antibody, V domains shown)
VH: B3 VH with F29L, M34V, N52E, G59D, V102T
VL: not shown
In the case of B6, the Kd (TROP2 [3]) is reported as 2.1 nM, the koff (TROP2 [3]) is reported as 0.00029 s⁻¹ and the kon (TROP2 [3]) is reported as 150000 M⁻¹ s⁻¹. The Kd (Cyno TROP2) was 2.1 nM, the koff (Cyno TROP2) was 0.00038 s⁻¹ and the kon (Cyno TROP2) was 190000 M⁻¹ s⁻¹.

B7: 1F11-1A3.315[Trop2]_H1.27_L1 (antibody, V domains shown)
VH: B3 VH with F29L, N52E, G59D, V102T
VL: not shown
B7 was tested, and the Kd (TROP2 [3]) was 0.93 nM, the koff (TROP2 [3]) was 0.00028 s⁻¹ and the kon (TROP2 [3]) was 330000 M⁻¹ s⁻¹. It also gave a Kd (Cyno TROP2) of 1.2 nM, a koff (Cyno TROP2) of 0.00047 s⁻¹ and a kon (Cyno TROP2) of 390000 M⁻¹ s⁻¹.

B8: 1F11-1A3.315[Trop2]_H1.30_L1 (antibody, V domains shown)
VH: B3 VH with F29L, M34V, N52E, G59L, V102T
VL: not shown
B8 was tested, and the Kd (TROP2 [3]) was 2.2 nM, the koff (TROP2 [3]) was 0.00037 s⁻¹ and the kon (TROP2 [3]) was 170000 M⁻¹ s⁻¹. The Kd (Cyno TROP2) was 3.7 nM, the koff (Cyno TROP2) was 0.00055 s⁻¹ and the kon (Cyno TROP2) was 150000 M⁻¹ s⁻¹.

B9: 1F11-1A3.315_H1.10_L1 (antibody, V domains shown)
VH: B3 VH with N52E, G59T
VL: not shown
notes: also called 1F11-1A3.315[Trop2]_H1.10 with L1
With B9 the Kd (TROP2 [2]) was 5 nM, the Kd (TROP2 [3]) was 0.98 nM and the koff (TROP2 [3]) was 0.00033 s⁻¹. It also gave a kon (TROP2 [3]) of 330000 M⁻¹ s⁻¹, a Kd (Cyno TROP2) of 1.5 nM and a koff (Cyno TROP2) of 0.00053 s⁻¹. The kon (Cyno TROP2) was 340000 M⁻¹ s⁻¹.

B10: 1F11-1A3.315[Trop2]_H1.31_L1 (antibody, V domains shown)
VH: B3 VH with F29L, M34V, N52E, G59D, A103K
VL: not shown
B10 showed a Kd (TROP2 [3]) of 0.43 nM, a koff (TROP2 [3]) of 0.00013 s⁻¹ and a kon (TROP2 [3]) of 300000 M⁻¹ s⁻¹. It also gave a Kd (Cyno TROP2) of 0.48 nM, a koff (Cyno TROP2) of 0.00014 s⁻¹ and a kon (Cyno TROP2) of 300000 M⁻¹ s⁻¹.

B11: 1F11-1A3.315[Trop2]_H1.28_L1 (antibody, V domains shown)
VH: B3 VH with F29L, N52E, G59L, V102T
VL: not shown
In the case of B11, the Kd (TROP2 [3]) is reported as 1.9 nM, the koff (TROP2 [3]) is reported as 0.00036 s⁻¹ and the kon (TROP2 [3]) is reported as 210000 M⁻¹ s⁻¹. It also gave a Kd (Cyno TROP2) of 2.1 nM, a koff (Cyno TROP2) of 0.00055 s⁻¹ and a kon (Cyno TROP2) of 270000 M⁻¹ s⁻¹.

B12: 1F11-1A3.315_H1.19_L1 (antibody, V domains shown)
VH: B3 VH with F29L, N52E, G59T, A103K
VL: not shown
notes: also called 1F11-1A3.315[Trop2]_H1.19 with L1
With B12 the Kd (TROP2 [2]) was 2 nM, the Kd (TROP2 [3]) was 0.25 nM and the koff (TROP2 [3]) was 0.0001 s⁻¹. It also gave a kon (TROP2 [3]) of 410000 M⁻¹ s⁻¹, a Kd (Cyno TROP2) of 0.46 nM and a koff (Cyno TROP2) of 0.0002 s⁻¹. For the same binder, the kon (Cyno TROP2) was 450000 M⁻¹ s⁻¹.

B13: 1A7_H1.14_L1.71 (antibody, V domains shown)
VH: EVQLLESGGGLVQPGGSLRLSCAASGFTFSSYYMSWVRQAPGKGLEWVSTISESGDSTYYADSVKGRFTISRDNSKNTLYLQMNSLRAEDTAVYYCAKSGPGLRQVGFDYWGQGTLVTVSS
VL: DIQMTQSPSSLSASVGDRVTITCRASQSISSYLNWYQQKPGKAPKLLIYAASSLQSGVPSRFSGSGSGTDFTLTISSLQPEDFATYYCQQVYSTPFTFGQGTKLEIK
notes: also called 1A7[CD28]_H1.14_L1.71
B13 was tested, and the Kd (human CD28 [4]) was 37 nM and the Kd (human CD28 [5]) was 38 nM.

B14: 1A7_H1.118_IGKV1-39_L1 (Fab, V domains shown)
VH: B13 VH with S52A, S57P
VL: not shown
notes: also called 1A7[CD28]_H1.118 paired with IGKV1-39 germline VL
B14 was tested, and the Kd (human CD28 [6]) was 63 nM and the Kd (human CD28 [7]) was roughly 400 nM.

B15: 1A7_H1.114_IGKV1-39_L1 (Fab, V domains shown)
VH: B13 VH with S52A, S54R
VL: not shown
notes: also called 1A7[CD28]_H1.114 paired with IGKV1-39 germline VL (1F11-1A3.315 L1)
For B15, the Kd (human CD28 [6]) was 44 nM.

B16: 1A7_H1.106_IGKV1-39_L1 (Fab, V domains shown)
VH: B13 VH with S54R
VL: not shown
notes: also called 1A7[CD28]_H1.106 paired with IGKV1-39 germline VL (1F11-1A3.315 L1)
With B16 the Kd (human CD28 [6]) was 43 nM.

B17: 1A7_H1.113_IGKV1-39_L1 (Fab, V domains shown)
VH: B13 VH with S54R, G55T
VL: not shown
notes: also called 1A7[CD28]_H1.113 paired with IGKV1-39 germline VL (1F11-1A3.315 L1)
With B17 the Kd (human CD28 [6]) was 29 nM.

B18: 1A7_H1.107_IGKV1-39_L1 (Fab, V domains shown)
VH: B13 VH with G55S, S57V
VL: not shown
notes: also called 1A7[CD28]_H1.107 paired with IGKV1-39 germline VL (1F11-1A3.315 L1)
B18 showed a Kd (human CD28 [6]) of 57 nM.

B19: 1A7_H1.130_IGKV1-39_L1 (Fab, V domains shown)
VH: B13 VH with S54R, S57V
VL: not shown
notes: also called 1A7[CD28]_H1.130 paired with IGKV1-39 germline VL (1F11-1A3.315 L1)
In the case of B19, the Kd (human CD28 [6]) is reported as 46 nM.

B20: 1A7_H1.129_IGKV1-39_L1 (Fab, V domains shown)
VH: B13 VH with S54R, G55A
VL: not shown
notes: Constant domains not specified for the assay; also called 1A7[CD28]_H1.129 paired with IGKV1-39 germline VL; 1F11-1A3.315 L1 as common light chain
For B20, the Kd (human CD28 [6]) was 21 nM and the Kd (human CD28 [7]) was 60 to 70 nM.

B21: 1A7_H1.125_IGKV1-39_L1 (Fab, V domains shown)
VH: B13 VH with S54H, D56L
VL: not shown
notes: also called 1A7[CD28]_H1.125 paired with IGKV1-39 germline VL (1F11-1A3.315 L1)
For B21, the Kd (human CD28 [6]) was 28 nM.

B22: 1A7_H1.111_IGKV1-39_L1 (Fab, V domains shown)
VH: B13 VH with S54R, G55S
VL: not shown
notes: also called 1A7[CD28]_H1.111 paired with IGKV1-39 germline VL (1F11-1A3.315 L1)
For B22, the Kd (human CD28 [6]) was 20 nM.

B23: 2C5A3.316 (antibody, V domains shown)
VH: QVQLVQSGAEVKKPGSSVKVSCKASGGTFTTSGISWVRQAPGQGLEWMGGIVPLLGTVNYAQKFQGRVTITADESTSTAYMELSSLRSEDTAVYYCARSGAATDARYGLDYWGQGTLVTVSS
VL: not shown
notes: Phage-derived TROP2 clone; also called 2C5A3.316[TROP2]_H1 with L1
With B23 the Kd (TROP2 [1]) was 345 nM.

B24: 1B11A3.316 (antibody, V domains shown)
VH: QVQLVQSGAEVKKPGASVKVSCKASGYTFTRYYMHWVRQAPGQGLEWMGIINPGGGSTIYAQKFQGRVTMTRDTSTSTVYMELSSLRSEDTAVYYCARDDVIVDAFDYWGQGTLVTVSS
VL: not shown
notes: Phage-derived TROP2 clone; also called 1B11A3.316[TROP2]_H1 with L1
B24 was tested, and the Kd (TROP2 [1]) was 54 nM.

B25: 1C9A4.313 (antibody, V domains shown)
VH: QVQLVQSGAEVKKPGSSVKVSCKASGGTFSNYAIGWVRQAPGQGLEWMGGIVPIFGVADYAQKFQGRVTITADESTSTAYMELSSLRSEDTAVYYCAREGWYLLNYFDYWGQGTLVTVSS
VL: not shown
notes: Phage-derived TROP2 clone; also called 1C9A4.313[TROP2]_H1 with L1
In the case of B25, the Kd (TROP2 [1]) is reported as 40 nM.
